Results taken from patent US20190359653A1 (Genentech, published 2019).
* marks the point of attachment. Palmitoyl = CCCCCCCCCCCCCCCC(=O)*; Myristoyl = CCCCCCCCCCCCCC(=O)*; Lauroyl = CCCCCCCCCCCC(=O)*; Decanoyl = CCCCCCCCCC(=O)*; Octanoyl = CCCCCCCC(=O)*

How the values were obtained:
[1] = molecular target: T1, FZD7 receptor of HEK293-TB cells (human, UniProt O75084 33-574); assay: cell-based or functional assay
[2] = molecular target: T1, FZD7 receptor of HEK293-TB cells; assay: cell-based or functional assay; remark: listed apart in the source

| Binder | Best Fit IC50 (nM), Wnt3a-mediated β-catenin signaling in HEK293-TB cells (50 ng/mL mWnt3a) [1] | IC50 (nM), TOPbrite reporter assay in HEK293-TB cells stimulated with mWnt3a (50 ng/mL) [2] | Reduction in fold potency vs. dimer [2] |
| --- | --- | --- | --- |
| Ac-SDDLEFWCHVK(Decanoyl)Y-NH2 (also: dimer via disulfide bond at Cys8) [dFz7-21Δ2.M13K (C10)] | 1500 nM | – | – |
| Ac-LPSDDAEFWCHVMY-NH2 (also: homodimer via Cys10 disulfide) [dFz7-21-L6A] | – | 7120 nM | 642 fold |
| Ac-SDDLEFWCHVK(Palmitoyl)Y-NH2 (also: dimer via disulfide bond at Cys8) [dFz7-21Δ2.M13K (C16)] | 607 nM | – | – |
| Ac-LPSDDLEFWCHVMA-NH2 (also: homodimer via Cys10 disulfide) [dFz7-21-Y14A] | – | 2960 nM | 267 fold |
| Ac-SDDLEFWCHVK(Myristoyl)Y-NH2 (also: dimer via disulfide bond at Cys8) [dFz7-21Δ2.M13K (C14)] | 607 nM | – | – |
| Ac-SDDLEFWCHVK(Lauroyl)Y-NH2 (also: dimer via disulfide bond at Cys8) [dFz7-21Δ2.M13K (C12)] | 553 nM | – | – |
| Ac-LPSDDLEFWCHVAY-NH2 (also: homodimer via Cys10 disulfide) [dFz7-21-M13A] | – | 913 nM | 82 fold |
| Ac-SDDLEFWCHVK(Octanoyl)Y-NH2 (also: dimer via disulfide bond at Cys8) [dFz7-21Δ2.M13K (C8)] | 2130 nM | – | – |
| Ac-LPSDDLEFACHVMY-NH2 (also: homodimer via Cys10 disulfide) [dFz7-21-W9A] | – | 640 nM | 58 fold |
